Laboratory results published in article PMC8408140 (2021).

B1: TFEB-EGFP [not stated] / Flag-TNKS1 [not stated] (parent complex)
chain 1: MASRIGLRMQLMREQAQQEEQRERMQQQAVMHYMQQQQQQQQQQLGGPPTPAINTPVHFQSPPPVPGEVLKVQSYLENPTSYHLQQSQHQKVREYLSETYGNKFAAHISPAQGSPKPPPAASPGVRAGHVLSSSAGNSAPNSPMAMLHIGSNPERELDDVIDNIMRLDDVLGYINPEMQMPNTLPLSSSHLNVYSSDPQVTASLVGVTSSSCPADLTQKRELTDAESRALAKERQKKDNHNLIERRRRFNINDRIKELGMLIPKANDLDVRWNKGTILKASVDYIRRMQKDLQKSRELENHSRRLEMTNKQLWLRIQELEMQARVHGLPTTSPSGMNMAELAQQVVKQELPSEEGPGEALMLGAEVPDPEPLPALPPQAPLPLPTQPPSPFHHLDFSHSLSFGGREDEGPPGYPEPLAPGHGSPFPSLSKKDLDLMLLDDSLLPLASDPLLSTMSPEASKASSRRSSFSMEEGDVL
chain 2: MAASRRSQHHHHHHQQQLQPAPGASAPPPPPPPPLSPGLAPGTTPASPTASGLAPFASPRHGLALPEGDGSRDPPDRPRSPDPVDGTSCCSTTSTICTVAAAPVVPAVSTSSAAGVAPNPAGSGSNNSPSSSSSPTSSSSSSPSSPGSSLAESPEAAGVSSTAPLGPGAAGPGTGVPAVSGALRELLEACRNGDVSRVKRLVDAANVNAKDMAGRKSSPLHFAAGFGRKDVVEHLLQMGANVHARDDGGLIPLHNACSFGHAEVVSLLLCQGADPNARDNWNYTPLHEAAIKGKIDVCIVLLQHGADPNIRNTDGKSALDLADPSAKAVLTGEYKKDELLEAARSGNEEKLMALLTPLNVNCHASDGRKSTPLHLAAGYNRVRIVQLLLQHGADVHAKDKGGLVPLHNACSYGHYEVTELLLKHGACVNAMDLWQFTPLHEAASKNRVEVCSLLLSHGADPTLVNCHGKSAVDMAPTPELRERLTYEFKGHSLLQAAREADLAKVKKTLALEIINFKQPQSHETALHCAVASLHPKRKQVTELLLRKGANVNEKNKDFMTPLHVAAERAHNDVMEVLHKHGAKMNALDTLGQTALHRAALAGHLQTCRLLLSYGSDPSIISLQGFTAAQMGNEAVQQILSESTPIRTSDVDYRLLEASKAGDLETVKQLCSSQNVNCRDLEGRHSTPLHFAAGYNRVSVVEYLLHHGADVHAKDKGGLVPLHNACSYGHYEVAELLVRHGASVNVADLWKFTPLHEAAAKGKYEICKLLLKHGADPTKKNRDGNTPLDLVKEGDTDIQDLLRGDAALLDAAKKGCLARVQKLCTPENINCRDTQGRNSTPLHLAAGYNNLEVAEYLLEHGADVNAQDKGGLIPLHNAASYGHVDIAALLIKYNTCVNATDKWAFTPLHEAAQKGRTQLCALLLAHGADPTMKNQEGQTPLDLATADDIRALLIDAMPPEALPTCFKPQATVVSASLISPASTPSCLSAASSIDNLTGPLAELAVGGASNAGDGAAGTERKEGEVAGLDMNISQFLKSLGLEHLRDIFETEQITLDVLADMGHEELKEIGINAYGHRHKLIKGVERLLGGQQGTNPYLTFHCVNQGTILLDLAPEDKEYQSVEEEMQSTIREHRDGGNAGGIFNRYNVIRIQKVVNKKLRERFCHRQKEVSEENHNHHNERMLFHGSPFINAIIHKGFDERHAYIGGMFGAGIYFAENSSKSNQYVYGIGGGTGCPTHKDRSCYICHRQMLFCRVTLGKSFLQFSTMKMAHAPPGHHSVIGRPSVNGLAYAEYVIYRGEQAYPEYLITYQIMKPEAPSQTATAAEQKT

Variants of: B1
Assay: co-immunoprecipitation (anti-GFP IP, immunoblot quantification); HEK293T cells; three independent immunoblots; parent: 1; read off a plot

Row | ratio to parent | Variant
1 | ~0.4 | chain 1 V65D, chain 1 G67V, chain 1 E68A
